One data set concerns PDCD4. Put plainly: EMSA. As to conditions: 0.2-1.2 uM protein; fluorescein-12-UTP incorporated about every 20-25 nt; 150 mM NaCl, 20 mM HEPES (pH not stated), 1.5 mM MgCl2, 0.1 mM EDTA, 0.75 mM DTT, 10% glycerol; 2.3 nM labelled RNA; on ice 20 min; 1% native agarose gel.
A further data set concerns eIF3F. In words: EMSA. As to conditions: 0.4-2.6 uM protein; fluorescein-12-UTP incorporated about every 20-25 nt; 150 mM NaCl, 20 mM HEPES (pH not stated), 1.5 mM MgCl2, 0.1 mM EDTA, 0.75 mM DTT, 10% glycerol; 2.3 nM labelled RNA; on ice 20 min; 1% native agarose gel. A general note: A gel shift assay detects complexes by their altered migration in electrophoresis.

The Kd is the equilibrium constant for the complex coming apart. A higher Kd goes with lower affinity. As to Bcl-xL IRES RNA, the Kd with PDCD4 was 400 nM; with eIF3F it was 800 nM.

Source of the values: article PMC13163806.
